Consider six molecules from US20240301052A1 (LANOVA MEDICINES DEVELOPMENT, published 2024).

Assay [1] addresses T1, human SLC34A2 (human, UniProt O95436 1-690).
T1 construct: whole, on cells; also called human solute carrier 34 A2; NaPi2b
T1 sequence (looked up): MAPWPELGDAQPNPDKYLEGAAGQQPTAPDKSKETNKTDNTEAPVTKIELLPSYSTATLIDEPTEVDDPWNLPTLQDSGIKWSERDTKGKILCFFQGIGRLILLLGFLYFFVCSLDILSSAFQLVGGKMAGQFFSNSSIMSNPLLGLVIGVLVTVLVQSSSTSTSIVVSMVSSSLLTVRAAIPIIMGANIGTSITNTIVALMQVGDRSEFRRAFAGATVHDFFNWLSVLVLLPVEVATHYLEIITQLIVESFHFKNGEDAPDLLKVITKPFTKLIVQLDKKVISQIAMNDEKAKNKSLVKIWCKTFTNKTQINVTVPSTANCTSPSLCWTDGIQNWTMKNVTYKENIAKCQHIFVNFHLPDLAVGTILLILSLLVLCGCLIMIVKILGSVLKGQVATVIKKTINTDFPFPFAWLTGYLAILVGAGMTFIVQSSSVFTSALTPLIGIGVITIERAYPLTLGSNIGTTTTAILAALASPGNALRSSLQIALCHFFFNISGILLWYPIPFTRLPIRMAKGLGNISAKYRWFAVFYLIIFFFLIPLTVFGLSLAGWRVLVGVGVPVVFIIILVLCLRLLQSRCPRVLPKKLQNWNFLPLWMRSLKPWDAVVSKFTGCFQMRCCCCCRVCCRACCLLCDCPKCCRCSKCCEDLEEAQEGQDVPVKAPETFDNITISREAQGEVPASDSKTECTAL
Description: FACS, RMG-1 cells. Summed up: (§1)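 Humanized antibodies were incubated with HEK293/H_SLC34A2, OVCAR3 or RMG-1 cells at 4° C. for 60 minutes. Cells were washed twice with FACS buffer, stained with fluorescent secondary antibody at 4° C. for 30 minutes, washed twice more and analyzed by flow cytometry.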
On the technique in general: Flow cytometry measures light scatter and fluorescence of single cells or particles in a stream.

Assay [2] concerns the target T1, human SLC34A2. Description: FACS, RMG-1 cells. The source holds these as a separate data set.
In assay [3] the target is T1, human SLC34A2. Description: FACS, OVCAR3 cells. Summed up: as §1
Assay [4] addresses T1, human SLC34A2. Description: cell-based or functional assay.
Assay [5] deals with T1, human SLC34A2. The assay is described as follows: FACS, HEK293/human SLC34A2 cells. The method in brief:
as §1

The target in assay [6] is T2, Rhesus SLC34A2 (Rhesus, UniProt F7HDA3 1-690).
T2 construct: whole, on cells
T2 sequence: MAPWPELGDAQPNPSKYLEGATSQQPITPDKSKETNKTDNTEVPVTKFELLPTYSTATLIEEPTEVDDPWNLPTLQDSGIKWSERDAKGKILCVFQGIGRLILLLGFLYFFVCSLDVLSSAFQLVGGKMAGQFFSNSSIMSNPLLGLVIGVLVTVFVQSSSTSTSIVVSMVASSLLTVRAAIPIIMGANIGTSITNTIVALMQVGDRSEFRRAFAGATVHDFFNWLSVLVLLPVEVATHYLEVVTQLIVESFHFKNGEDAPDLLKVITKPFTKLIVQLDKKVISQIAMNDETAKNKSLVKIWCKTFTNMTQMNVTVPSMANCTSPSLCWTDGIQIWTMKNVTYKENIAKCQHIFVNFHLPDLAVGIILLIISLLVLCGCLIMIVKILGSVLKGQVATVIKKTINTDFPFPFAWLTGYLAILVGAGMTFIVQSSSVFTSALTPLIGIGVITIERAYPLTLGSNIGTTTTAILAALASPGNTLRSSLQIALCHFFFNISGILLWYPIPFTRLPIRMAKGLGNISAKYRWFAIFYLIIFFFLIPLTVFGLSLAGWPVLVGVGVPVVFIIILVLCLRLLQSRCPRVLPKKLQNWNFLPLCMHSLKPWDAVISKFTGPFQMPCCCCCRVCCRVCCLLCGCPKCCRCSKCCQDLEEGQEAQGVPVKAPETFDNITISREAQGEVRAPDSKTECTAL
The assay is described as follows: FACS, HEK293/Rhesus SLC34A2 cells.

The target in assay [7] is T1, human SLC34A2. The assay is described as follows: cell-based or functional assay. The source holds these as a separate data set.
In assay [8] the target is T2, Rhesus SLC34A2. The assay is described as follows: FACS, HEK293/Rhesus SLC34A2 cells. The source holds these as a separate data set.
In the next assay the target is T3, Cynomolgus SLC34A2 (Cynomolgus, UniProt A0A2K5UHY1 1-690).
T3 construct: whole, on cells; also called Cyno SLC34A2
T3 sequence: T2 sequence with P325H, I530V
The assay is described as follows: FACS, cells expressing Cynomolgus SLC34A2.

Substitutions are numbered along the chain they refer to. Read-outs that look alike come from different tables or passages of the source.

B1: 63A11D5B4.p1.z9 hIgG1 (antibody, V domains shown)
VH: QVQLVQSGAEVVKPGASVKMSCKTSGYTFITYNMHWVRQAPGQGLEWIGAIYPGSGDTSYNQKFKGRVTLTADKSTSTAYMELSSLRSEDTAVYYCSISTIITTGAVDYWGQGTLVTVSS
VL: DIQMTQSPSSLSASVGDRVTITCKASQDVGTAVAWYQQKPGKVPKLLIYWTSTRHTGVPSRFSGSGSGTDFTLTISSLQPEDVATYYCQQYSRIPLTFGGGTKVEIK
notes: humanized hIgG1
One may read the EC50 as the concentration giving half of the maximal effect. The low end stands for an effect from little substance, the high end for a need for much substance. B1: the EC50 in the assay with human SLC34A2 [1] amounted to 28.3 nM; with human SLC34A2 [2] it was 28.3 nM; in the assay with human SLC34A2 [3], 9.12 nM; with human SLC34A2 [5] it was 5.49 nM; in the assay with Rhesus SLC34A2 [6], 1.6 nM. Moreover, the Top with human SLC34A2 [1] is 12200 MFI; with human SLC34A2 [5], 36800 MFI. Besides, the “ADCC reporter EC50” value with human SLC34A2 [4] is 1.69 nM. The “ADCC reporter Top (MFI)” value with human SLC34A2 [4] was 116000 MFI. Moreover, the “Top (MFI)” value with Rhesus SLC34A2 [6] was 11800 MFI.

B2: xi91C9F1 hIgG1 (antibody, V domains shown)
VH: EVQLQQSGPELVKPGTSVKISCKTSGFFFTEYIIHWVKQSHGRSLEWIGGIIPNNGVTNYKQNFRGKAALTADKSSNTAYMELRSLTSEDSAVYYCARWRNGYYSAMDSWGQGTSVTVSS
VL: DIVVTQSHKFMSTSLGDRVSITCTASQDVGTAVAWYQQKPGHSPKLLIYWASTRHTGVPERFTGSGSGTDFTLTITNVQSEDLADYFCQQYRTSPLTFGVGTKLELK
notes: chimeric, hIgG1
For the molecule B2, the EC50 with human SLC34A2 [1] stood at 1.76 nM; with human SLC34A2 [3] it was 2.5 nM; with human SLC34A2 [5], 1.77 nM; with Rhesus SLC34A2 [8] it was 3.9 nM; in the assay with Rhesus SLC34A2 [6] it was 1.2 nM; with Cynomolgus SLC34A2 it was 9.11 nM. For the same molecule, the Top is 9730 MFI with human SLC34A2 [1], 21000 MFI with human SLC34A2 [3] and 32100 MFI with human SLC34A2 [5]. In the assay with human SLC34A2 [7], the “cytotoxicity EC50” value turned out to be 0.8 nM. In addition, the “cytotoxicity Inhibition %” value in the assay with human SLC34A2 [7] is 97.4%. Moreover, the “ADCC reporter EC50” value with human SLC34A2 [4] stood at 1.96 nM. In addition, the “ADCC reporter Top (MFI)” value with human SLC34A2 [4] amounted to 133000 MFI. For the same molecule, the “Top (MFI)” value in the assay with Rhesus SLC34A2 [8] turned out to be 15500 MFI; in the assay with Rhesus SLC34A2 [6], 11400 MFI; with Cynomolgus SLC34A2 it was 2430 MFI.

B3: xi30H9B8F9 hIgG1 (antibody, V domains shown)
VH: QVQLQQPGAELVKPGASVKMSCKTSGYTFTTNNMHWVKQTPGQGLEWIGAIYPGNGATAYNQKFKGKATLTADKSSSTAYMQLSSLTSEASAVYYCARGMYGHGAMDYWGQGTSVIVSS
VL: DIVMTQSHKFMSRSVGDRVRITCKASQDVGTAVAWYQQKPGQSPKLLIYWATTRHSGVPDRFTGSGSGTDFIFTISNVQSEDLADYFCQQYSSNPLTFGAGTKLELK
notes: chimeric, hIgG1
Take B3: the EC50 was determined as 1.19 nM with human SLC34A2 [1]; 0.74 nM in the assay with human SLC34A2 [3]; 1.63 nM in the assay with human SLC34A2 [5]; 1.9 nM in the assay with Rhesus SLC34A2 [8]; 0.9 nM in the assay with Rhesus SLC34A2 [6]; 1.08 nM with Cynomolgus SLC34A2. The figures for the Top with human SLC34A2 [1] and with human SLC34A2 [5] were 11500 MFI and 40800 MFI, respectively. Also, the “cytotoxicity EC50” value with human SLC34A2 [7] worked out at 0.84 nM. The “cytotoxicity Inhibition %” value with human SLC34A2 [7] came to 91.7%. In addition, in the assay with human SLC34A2 [4], the “ADCC reporter EC50” value was determined as 1.26 nM. Also, the “ADCC reporter Top (MFI)” value with human SLC34A2 [4] came out at 109000 MFI. Also, the “Top (MFI)” value in the assay with Rhesus SLC34A2 [8] was 47900 MFI; with Rhesus SLC34A2 [6], 17400 MFI; with Cynomolgus SLC34A2 it was 4080 MFI.

B4: 62G10E4G8.p3.z15 hIgG1 (antibody, V domains shown)
VH: QVQLVQSGAEVVKPGASVKMSCKASGYTFPSYITHWVKQAPGQGLEWIGAIYPGNADTSYIQKFKGRATLTADKSTSTAYMELSSLRSEDTAVYYCARGTYGTSAWFTYWGQGTLVTVSS
VL: EIVLTQSPATLSVSPGERATLSCRARQNIGNNLYWYQQKPGQSPRLLIKYASQSISGIPSRFSGSGSGTDFTLTISSLQSEDFAVYFCQQSFSWPLTFGQGTKLEIK
notes: humanized hIgG1
Turning to B4, the 50% effective concentration (EC50) was determined as 3.69 nM in the assay with human SLC34A2 [1]; 3.7 nM with human SLC34A2 [2]; 3.76 nM with human SLC34A2 [3]; 2.34 nM with human SLC34A2 [5]; 1.4 nM with Rhesus SLC34A2 [6]. Moreover, the values for the Top in the assay with human SLC34A2 [1] and with human SLC34A2 [5] were 10800 MFI and 33600 MFI, respectively. In the assay with human SLC34A2 [4], the “ADCC reporter EC50” value is 5.39 nM. For the same molecule, the “ADCC reporter Top (MFI)” value with human SLC34A2 [4] amounted to 123000 MFI. In the assay with Rhesus SLC34A2 [6], the “Top (MFI)” value was found to be 14400 MFI.

B5: xi62G10E4G8 hIgG1 (antibody, V domains shown)
VH: B4 VH with V5Q, A40T, A56G, R67K, T76S, E82Q, R87T, T91S, S120A
VL: DIVLTQSPATLSVTPGDSVSLSCRARQNIGNNLYWYQQKSHESPRLLIKYASQSISGIPSRFSGSGSGTDFTLTINSVETEDFGVYFCQQSFSWPLTFGAGTKLELK
notes: chimeric, hIgG1
In the case of B5, the EC50 was found to be 7.97 nM with human SLC34A2 [1]; 3.73 nM with human SLC34A2 [3]; 4.26 nM with human SLC34A2 [5]; 3.7 nM in the assay with Rhesus SLC34A2 [8]; 1.8 nM with Rhesus SLC34A2 [6]; 3.33 nM in the assay with Cynomolgus SLC34A2. The results for the Top with human SLC34A2 [1] and in the assay with human SLC34A2 [5] were 11300 MFI and 32700 MFI, respectively. For the same molecule, in the assay with human SLC34A2 [7], the “cytotoxicity EC50” value came to 0.42 nM. Further, in the assay with human SLC34A2 [7], the “cytotoxicity Inhibition %” value was 97.2%. For the same molecule, the “ADCC reporter EC50” value with human SLC34A2 [4] turned out to be 4.56 nM. Moreover, in the assay with human SLC34A2 [4], the “ADCC reporter Top (MFI)” value was 101000 MFI. Besides, the “Top (MFI)” value turned out to be 39100 MFI with Rhesus SLC34A2 [8], 13300 MFI with Rhesus SLC34A2 [6] and 4020 MFI with Cynomolgus SLC34A2.

B6: xi63A11D5B4 hIgG1 (antibody, V domains shown)
VH: QVQLQQPGAELVKPGASVKMSCRTSGYTFITYNMHWVKQTPGQGREWIGAIYPGNGDTSYNQKFKGKATLTADKSSSTAYMQLNSLTSEDSAVYYCSISTIITTGAVDYWGQGTSVTVAS
VL: DIVMTQSHKFMSTSVGDRVSITCKASQDVGTAVAWYQQKAGQSPKLLIYWTSTRHTGVPDRFTGSGSGTDFTLIIRSLQSEDLADYFCQQYSRIPLTFGSGTKLEIK
notes: chimeric, hIgG1
For the molecule B6, the EC50 turned out to be 14.4 nM with human SLC34A2 [1]; 10.5 nM with human SLC34A2 [3]; 5.21 nM in the assay with human SLC34A2 [5]; 4.6 nM with Rhesus SLC34A2 [8]; 2.3 nM with Rhesus SLC34A2 [6]; 5.33 nM in the assay with Cynomolgus SLC34A2. Further, the values for the Top with human SLC34A2 [1] and with human SLC34A2 [5] were 11200 MFI and 35600 MFI, respectively. Further, the “cytotoxicity EC50” value with human SLC34A2 [7] amounted to 0.66 nM. For the same molecule, in the assay with human SLC34A2 [7], the “cytotoxicity Inhibition %” value turned out to be 99%. For the same molecule, the “Top (MFI)” value with Rhesus SLC34A2 [8] turned out to be 45500 MFI; in the assay with Rhesus SLC34A2 [6], 15200 MFI; in the assay with Cynomolgus SLC34A2, 3510 MFI.
